Target: A3G-CTD2* (catalytically inactive), MST construct (human, UniProt Q9HC16 191-384, E259A)
Test: MST; 23 C; MST: 20 mM Bis-Tris pH 6.5, 100 mM NaCl, 1 mM DTT, 0.002% Tween 20, 50 nM protein, RED-tris-NTA dye, 23 C; NMR inhibition: 50 mM NaPO4 pH 6.5, 100 mM NaCl, 0.002% Tween 20, 1 mM DTT, 10 µM ZnCl2, 25 C
Conditions: protein: recombinant; tags: His (pET-28a); single strand

Chain of A3G-CTD2* (catalytically inactive), MST construct (Q9HC16 191-384 E259A): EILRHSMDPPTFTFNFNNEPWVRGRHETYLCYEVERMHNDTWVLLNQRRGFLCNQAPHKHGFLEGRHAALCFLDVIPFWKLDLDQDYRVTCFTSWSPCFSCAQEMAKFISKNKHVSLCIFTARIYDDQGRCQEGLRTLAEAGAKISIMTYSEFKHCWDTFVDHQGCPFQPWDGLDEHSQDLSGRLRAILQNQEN

AATCCCAAA (ssDNA) [5'-AATCCCAAA (substrate)] showed a Kd of 5.8 ± 0.8 µM.
